Measurements published in article PMC9795039, “Kindlin2 enables EphB/ephrinB bi-directional signaling to support vascular development” (Life Science Alliance, 2022).

B1: his-tagged human full-length kindlin2 [human] / his/Avi-tagged cytoplasmic tail of ephrinB2 WT [modified: biotinylated; biotinylated] [not stated] (parent complex)
chain 1: MALDGIRMPDGCYADGTWELSVHVTDLNRDVTLRVTGEVHIGGVMLKLVEKLDVKKDWSDHALWWEKKRTWLLKTHWTLDKYGIQADAKLQFTPQHKLLRLQLPNMKYVKVKVNFSDRVFKAVSDICKTFNIRHPEELSLLKKPRDPTKKKKKKLDDQSEDEALELEGPLITPGSGSIYSSPGLYSKTMTPTYDAHDGSPLSPTSAWFGDSALSEGNPGILAVSQPITSPEILAKMFKPQALLDKAKINQGWLDSSRSLMEQDVKENEALLLRFKYYSFFDLNPKYDAIRINQLYEQAKWAILLEEIECTEEEMMMFAALQYHINKLSIMTSENHLNNSDKEVDEVDAALSDLEITLEGGKTSTILGDITSIPELADYIKVFKPKKLTLKGYKQYWCTFKDTSISCYKSKEESSGTPAHQMNLRGCEVTPDVNISGQKFNIKLLIPVAEGMNEIWLRCDNEKQYAHWMAACRLASKGKTMADSSYNLEVQNILSFLKMQHLNPDPQLIPEQITTDITPECLVSPRYLKKYKNKQITARILEAHQNVAQMSLIEAKMRFIQAWQSLPEFGITHFIARFQGGKKEELIGIAYNRLIRMDASTGDAIKTWRFSNMKQWNVNWEIKMVTVEFADEVRLSFICTEVDCKVVHEFIGGYIFLSTRAKDQNESLDEEMFYKLTSGWV
chain 2: KYRRRHRKHSPQHTTTLSLSTLATPKRSGNNNGSEPSDIIIPLRTADSVFCPHYEKVSGDYGHPVYIVQEMPPQSPANIYYKV

Variants of: B1
Experiment: in vitro binding assay (pulldown on NeutrAvidin beads, Western blot densitometry); purified kindlin2; n = 3; read off a plot

percent of parent	Variant
~105 % WT	chain 2 KYRRRHRKHSPQHTTTLSLSTLATPKRSGNNNGSEPSDIIIPLRTADSVFCPHYEKVSGDYGHPVYIVQEMPPQAPANIYYKV [chain 2 S75A]
~14 % WT	chain 2 KYRRRHRKHSPQHTTTLSLSTLATPKRSGNNNGSEPSDIIIPLRTADSVFCPHYEKVSGDYGHPVYIVQEMPPQSPAAAAAKV [chain 2 N78A, chain 2 I79A, chain 2 Y80A, chain 2 Y81A]
~107 % WT	chain 2 KYRRRHRKHSPQHTTTLSLSTLATPKRSGNNNGSEPSDIIIPLRTADSVFCPHYEKVSGDYGHPVYIVQEMPPQSPAAIYYKV [chain 2 N78A]
~36 % WT	chain 2 KYRRRHRKHSPQHTTTLSLSTLATPKRSGNNNGSEPSDIIIPLRTADSVFCPHYEKVSGDYGHPVYIVQEMPPQSPAAIYAKV [chain 2 N78A, chain 2 Y81A]
~61 % WT	chain 2 KYRRRHRKHSPQHTTTLSLSTLATPKRSGNNNGSEPSDIIIPLRTADSVFCPHYEKVSGDYGHPVYIVQEMPPQSPANIYAKV [chain 2 Y81A]
